Assay results reported in US20150158938A1 (SNU R AND DB FOUNDATION, published 2015).

Target: T1, vascular endothelial growth factor receptor-2 (VEGFR2) on HUVEC (human, UniProt P35968 20-1356)
T1 construct: whole, on cells
Test: flow cytometry on HUVEC (express VEGFR2), FITC anti-His detection

T1 sequence (P35968 20-1356): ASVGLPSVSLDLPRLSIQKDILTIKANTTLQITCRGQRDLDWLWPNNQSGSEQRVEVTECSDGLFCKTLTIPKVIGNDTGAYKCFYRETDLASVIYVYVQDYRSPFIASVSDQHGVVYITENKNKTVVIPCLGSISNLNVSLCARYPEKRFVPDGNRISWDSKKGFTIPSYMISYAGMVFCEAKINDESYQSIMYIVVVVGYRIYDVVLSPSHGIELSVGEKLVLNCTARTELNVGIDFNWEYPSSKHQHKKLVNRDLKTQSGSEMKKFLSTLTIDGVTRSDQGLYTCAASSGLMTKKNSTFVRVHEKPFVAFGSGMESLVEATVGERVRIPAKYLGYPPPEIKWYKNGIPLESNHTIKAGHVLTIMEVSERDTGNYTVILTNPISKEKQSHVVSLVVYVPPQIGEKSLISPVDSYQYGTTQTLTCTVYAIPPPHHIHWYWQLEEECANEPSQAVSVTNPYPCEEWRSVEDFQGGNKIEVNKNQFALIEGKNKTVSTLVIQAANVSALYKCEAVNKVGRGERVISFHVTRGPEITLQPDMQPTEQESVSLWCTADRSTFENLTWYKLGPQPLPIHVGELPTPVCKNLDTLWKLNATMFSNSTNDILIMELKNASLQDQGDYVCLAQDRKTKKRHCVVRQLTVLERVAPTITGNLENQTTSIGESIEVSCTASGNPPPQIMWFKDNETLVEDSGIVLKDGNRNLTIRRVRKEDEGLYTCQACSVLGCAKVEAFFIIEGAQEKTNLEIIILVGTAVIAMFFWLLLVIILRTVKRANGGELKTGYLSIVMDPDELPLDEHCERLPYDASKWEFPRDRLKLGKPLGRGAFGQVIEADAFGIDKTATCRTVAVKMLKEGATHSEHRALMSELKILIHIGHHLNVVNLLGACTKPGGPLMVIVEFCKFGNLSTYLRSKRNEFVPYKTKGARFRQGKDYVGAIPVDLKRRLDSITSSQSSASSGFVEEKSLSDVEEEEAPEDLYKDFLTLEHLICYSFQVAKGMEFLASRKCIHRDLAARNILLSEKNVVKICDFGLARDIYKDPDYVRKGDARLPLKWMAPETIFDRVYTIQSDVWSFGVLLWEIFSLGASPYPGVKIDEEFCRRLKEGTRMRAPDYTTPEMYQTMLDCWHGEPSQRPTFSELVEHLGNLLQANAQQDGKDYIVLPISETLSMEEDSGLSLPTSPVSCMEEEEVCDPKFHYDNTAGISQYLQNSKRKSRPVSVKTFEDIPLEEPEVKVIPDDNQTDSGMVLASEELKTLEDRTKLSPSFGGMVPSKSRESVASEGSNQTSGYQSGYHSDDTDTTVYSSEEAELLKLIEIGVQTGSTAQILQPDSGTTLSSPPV

B1: His-tagged gremlin-1 (R&D Systems) (ligand, UniProt O60565 25-184, looked up)
chain: KKKGSQGAIPPPDKAQHNDSEQTQSPQQPGSRNRGRGQGRGTAMPGEEVLESSQEALHVTERKYLKRDWCKTQPLKQTIHEEGCNSRTIINRFCYGQCNSFYIPRHIRKEEGSFQSCSFCKPKKFTTMMVTLNCPELQPPTKKKRVTRVKQCRCISIDLD
notes: Commercial protein; not shown: His tag
B1: no binding (tested: 100 nM).
